Results taken from paper doi:10.1101/2022.06.01.494241 (bioRxiv, 2022).

Molecular target: T1, μMASS^2A (rat)
T1 chain: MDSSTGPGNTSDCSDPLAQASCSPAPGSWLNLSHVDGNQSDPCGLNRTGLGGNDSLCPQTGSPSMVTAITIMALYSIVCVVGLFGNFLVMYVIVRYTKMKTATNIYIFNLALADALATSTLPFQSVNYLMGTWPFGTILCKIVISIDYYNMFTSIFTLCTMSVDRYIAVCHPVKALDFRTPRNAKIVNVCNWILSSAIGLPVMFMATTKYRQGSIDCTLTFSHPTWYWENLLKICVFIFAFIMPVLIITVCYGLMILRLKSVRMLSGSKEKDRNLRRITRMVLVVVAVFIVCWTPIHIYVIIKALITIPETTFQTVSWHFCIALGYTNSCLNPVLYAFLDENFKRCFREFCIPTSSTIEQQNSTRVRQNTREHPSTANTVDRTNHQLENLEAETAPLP
Test: other fluorescence titration

B1: β-endorphin (peptide, UniProt P01189 237-267, looked up)
peptide: YGGFMTSEKSQTPLVTLFKNAIIKNAYKKGE
In the case of B1, the Kd is reported as 1180 nM.
